Experimental data as given in PMC6274866, “The 2β Splice Variation Alters the Structure and Function of the Stromal Interaction Molecule Coiled-Coil Domains” (International Journal of Molecular Sciences, 2018).

Legend:
[1] = target: the molecule itself; test: SEC-MALS; 1 mg/mL protein injected on Superdex 200 Increase 10/300 GL at 10 °C; 20 mM TRIS, 300 mM NaCl, 1 mM DTT, pH 8.0; with 25 mM CaCl2; stoichiometric ratio = MALS molecular weight / theoretical monomer mass
[2] = target: the molecule itself; test: SEC-MALS; 1 mg/mL protein injected on Superdex 200 Increase 10/300 GL at 10 °C; 20 mM TRIS, 300 mM NaCl, 1 mM DTT, pH 8.0; without CaCl2; stoichiometric ratio = MALS molecular weight / theoretical monomer mass

B1: STIM1-2β-OASF (STIM1-OASF mutated to contain the VAASYLIQ (2β) insertion after G379) (domain or fragment, human, UniProt Q13586-1 234-491, looked up)
chain: NRYSKEHMKKMMKDLEGLHRAEQSLHDLQERLHKAQEEHRTVEVEKVHLEKKLRDEINLAKQEAQRLKELREGTENERSRQKYAEEELEQVREALRKAEKELESHSSWYAPEALQKWLQLTHEVEVQYYNIKKQNAEKQLLVAKEGVAASYLIQAEKIKKKRNTLFGTFHVAHSSSLDDVDHKILTAKQALSEVTAALRERLHRWQQIEILCGFQIVNNPGIHSLVAALNIDPSWMGSTRPNPAHFIMTDDVDDMDEEIVSPLSMQ
notes: Made by PCR-mediated site-directed mutagenesis of pET-28a-STIM1-OASF; A few vector residues probably remain after thrombin cleavage (surmise); source: E. coli BL21 (DE3), purified under denaturing conditions (guanidine-HCl, nickel-NTA), renatured, thrombin-cleaved, SEC
[1]
  stoichiometry N: 1.96
[2]
  stoichiometry N: 2.02
